# Test results reported in patent US7122382.
# Legend:
# SV40 large T (SV40) = SV40 large T (SV40) (UniProt P03070); test: biotinylated row protein on streptavidin beads, 35S column protein counted
# Fos = Fos (UniProt P01101); test: as above
# Jun = Jun (UniProt P05627); test: as above
# [1] = biological target: luciferase [luciferase: P08659]; test: as above
# p53 = p53 (UniProt P02340); test: as above
# streptoavidin beads = streptoavidin beads (UniProt P22629); test: five 35S-labelled proteins alone on streptavidin beads, no biotinylated protein
# Sequence of streptoavidin beads (P22629 37-163): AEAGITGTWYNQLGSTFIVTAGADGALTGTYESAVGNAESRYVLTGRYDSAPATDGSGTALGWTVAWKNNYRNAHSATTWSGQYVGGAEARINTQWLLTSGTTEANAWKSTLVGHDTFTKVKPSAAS
# Sequence of luciferase [luciferase: P08659] (P08659 whole entry): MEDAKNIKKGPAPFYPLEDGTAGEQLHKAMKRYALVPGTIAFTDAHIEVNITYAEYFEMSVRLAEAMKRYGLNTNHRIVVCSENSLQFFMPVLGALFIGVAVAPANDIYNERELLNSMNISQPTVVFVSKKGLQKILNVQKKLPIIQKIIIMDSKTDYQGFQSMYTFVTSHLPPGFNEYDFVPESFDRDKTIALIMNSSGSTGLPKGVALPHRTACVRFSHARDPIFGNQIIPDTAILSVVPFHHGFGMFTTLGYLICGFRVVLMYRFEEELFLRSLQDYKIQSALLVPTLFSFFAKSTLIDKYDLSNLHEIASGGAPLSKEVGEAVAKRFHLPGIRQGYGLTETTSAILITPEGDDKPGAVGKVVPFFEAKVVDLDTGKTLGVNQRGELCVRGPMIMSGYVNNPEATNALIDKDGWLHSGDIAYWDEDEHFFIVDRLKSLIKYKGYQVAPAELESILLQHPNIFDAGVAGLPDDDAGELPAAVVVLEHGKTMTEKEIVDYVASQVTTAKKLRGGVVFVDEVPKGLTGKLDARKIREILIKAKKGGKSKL
# Sequence of p53 (P02340 whole entry): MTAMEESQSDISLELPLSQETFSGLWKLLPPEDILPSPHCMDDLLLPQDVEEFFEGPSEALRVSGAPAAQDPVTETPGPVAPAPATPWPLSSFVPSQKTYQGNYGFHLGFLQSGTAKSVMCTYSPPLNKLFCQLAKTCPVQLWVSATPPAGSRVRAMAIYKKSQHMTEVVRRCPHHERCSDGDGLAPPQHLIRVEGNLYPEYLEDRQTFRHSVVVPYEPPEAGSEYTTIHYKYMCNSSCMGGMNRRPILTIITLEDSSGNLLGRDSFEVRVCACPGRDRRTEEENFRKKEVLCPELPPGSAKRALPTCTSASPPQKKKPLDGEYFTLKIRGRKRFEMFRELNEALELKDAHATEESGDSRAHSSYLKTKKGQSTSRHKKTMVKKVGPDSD
# Sequence of Fos (P01101 whole entry): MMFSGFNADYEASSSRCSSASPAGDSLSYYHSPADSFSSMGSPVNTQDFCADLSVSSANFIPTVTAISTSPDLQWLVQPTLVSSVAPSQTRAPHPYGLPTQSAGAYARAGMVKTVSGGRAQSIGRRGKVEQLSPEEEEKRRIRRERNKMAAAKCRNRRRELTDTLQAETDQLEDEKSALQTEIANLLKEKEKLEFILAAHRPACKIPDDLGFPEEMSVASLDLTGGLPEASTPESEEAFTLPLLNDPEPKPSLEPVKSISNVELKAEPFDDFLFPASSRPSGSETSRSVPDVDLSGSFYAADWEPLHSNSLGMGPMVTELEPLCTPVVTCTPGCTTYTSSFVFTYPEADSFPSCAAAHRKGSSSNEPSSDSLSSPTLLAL
# Sequence of Jun (P05627 whole entry): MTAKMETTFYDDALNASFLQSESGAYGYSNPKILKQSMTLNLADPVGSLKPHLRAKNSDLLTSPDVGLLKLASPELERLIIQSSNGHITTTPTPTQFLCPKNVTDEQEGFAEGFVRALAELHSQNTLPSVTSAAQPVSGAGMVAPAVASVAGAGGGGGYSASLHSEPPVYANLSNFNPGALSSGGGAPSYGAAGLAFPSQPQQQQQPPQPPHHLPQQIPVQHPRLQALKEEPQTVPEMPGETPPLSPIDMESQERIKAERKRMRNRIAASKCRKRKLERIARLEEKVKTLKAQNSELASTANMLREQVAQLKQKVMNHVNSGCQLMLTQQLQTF
substance,measurement,setting,value
SV40 large T (from UniProt P03070 1-708),RI (c.p.m.),SV40 large T (SV40),551 c.p.m.
same,RI (c.p.m.),Fos,197 c.p.m.
same,RI (c.p.m.),Jun,197 c.p.m.
SV40 large T (from UniProt P03070 1-708) (other; other documents disagree on this pair),RI (c.p.m.),[1],208 c.p.m.
same,RI (c.p.m.),p53,1400 c.p.m.
"mixture of the five proteins of Reference Examples 1 and 2 (Fos, Jun, luciferase, SV40 large T, p53)","RI (cpm), background without biotinylated proteins",streptoavidin beads,447 cpm
p53 (from UniProt P02340 1-390),RI (c.p.m.),p53,200 c.p.m.
